target: tlr4_human TLR4 (UniProt O00206)
Sequence (O00206 whole entry): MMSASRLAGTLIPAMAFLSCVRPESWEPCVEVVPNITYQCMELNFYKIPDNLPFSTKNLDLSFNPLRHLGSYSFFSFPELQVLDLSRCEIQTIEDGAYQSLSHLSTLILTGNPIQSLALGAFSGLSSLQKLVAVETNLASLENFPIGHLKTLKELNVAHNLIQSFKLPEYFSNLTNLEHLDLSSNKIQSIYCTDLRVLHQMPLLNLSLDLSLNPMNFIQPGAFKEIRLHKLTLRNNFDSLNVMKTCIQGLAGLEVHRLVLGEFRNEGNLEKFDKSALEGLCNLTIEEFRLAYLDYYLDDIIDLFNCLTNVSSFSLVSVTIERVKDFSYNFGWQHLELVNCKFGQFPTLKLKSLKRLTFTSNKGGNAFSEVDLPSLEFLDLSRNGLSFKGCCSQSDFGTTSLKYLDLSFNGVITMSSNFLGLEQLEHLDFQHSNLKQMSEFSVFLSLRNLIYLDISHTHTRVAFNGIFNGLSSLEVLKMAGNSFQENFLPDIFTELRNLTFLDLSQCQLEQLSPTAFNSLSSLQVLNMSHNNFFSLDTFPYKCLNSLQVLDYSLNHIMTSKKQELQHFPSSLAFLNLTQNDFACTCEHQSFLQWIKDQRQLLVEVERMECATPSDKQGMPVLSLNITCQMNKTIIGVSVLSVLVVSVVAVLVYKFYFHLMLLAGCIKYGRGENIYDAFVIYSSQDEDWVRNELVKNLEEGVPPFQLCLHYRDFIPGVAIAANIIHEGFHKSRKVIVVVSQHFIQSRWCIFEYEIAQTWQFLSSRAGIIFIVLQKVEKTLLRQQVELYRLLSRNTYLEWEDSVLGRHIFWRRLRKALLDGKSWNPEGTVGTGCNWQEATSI

Effect of a mutation on the interaction, decreasing interaction strength:
Tenascin (Homo sapiens), P24821 D2130P;I2133L;N2135S
Tenascin (Homo sapiens), P24821 K2096A;R2098A
Tenascin (Homo sapiens), P24821 K2100A;K2102A
Tenascin (Homo sapiens), P24821 K2096A;R2098A;K2100A;K2102A
Tenascin (Homo sapiens), P24821 K2096A;R2098A;K2100A;K2102A;D2130P;I2133L;N2135S

Reference: IntAct's records for PubMed 29150600
